The data set deals with the molecule itself. Kind of data set: crystal structure.

B1: Mycobacterium tuberculosis isoprenyl diphosphate synthase Rv2173 (enzyme)
chain: LESTSLYKKAGSAAALFRFKKEPFTMAGAITDQLRRYLHGRRRAAAHMGSDYDGLIADLEDFVLGGGKRLRPLFAYWGWHAVASREPDPDVLLLFSALELLHAWALVHDDLIDRSATRRGRPTAQLRYAALHRDRDWRGSPDQFGMSAAILLGDLAQVWADDIVSKVCQSALAPDAQRRVHRVWADIRNEVLGGQYLDIVAEASAAESIESAMNVATLKTACYTVSRPLQLGTAAAADRSDVAAIFEHFGADLGVAFQLRDDVLGVFGDPAVTGKPSGDDLKSGKRTVLVAEAVELADRSDPLAAKLLRTSIGTRLTDAQVRELRTVIEAVGARAAAESRIAALTQRALATLASAPINATAKAGLSELAMMAANRSA
notes: also called tagged Rv2173; not shown: His6, N-terminal, kept
As to B1, the “stoichiometry N” value came out at 2.

These data come from publication PMC12035560, “Structures of Mycobacterium tuberculosis isoprenyl diphosphate synthase Rv2173 in substrate-bound forms” (Acta Crystallographica Section F: Structural Biology …, 2025).
